Laboratory results published in patent US20250360220A1, “REGULATION OF TAU USING PROTEIN-LIKE POLYMERS AND USES THEREOF” (NORTHWESTERN UNIVERSITY, priority 2022, published 2025).

What was measured:
K18 Tau = target: T1, K18 Tau (Homo sapiens, UniProt P10636); test: Tau Kinetics Thioflavin T plate reader assay; assay type: biochemical; details: for PLP or Pep/Tau %: Avg P amplitude divided by Avg Tau amplitude x 100; for PLP or Pep 10 hr (average amplitude, fluorescent intensity readout, of the Tau trace treated with that compound) / PLP or Pep 15 hr (average amplitude) / PLP or Pep 20 hr (average amplitude): K18 Tau 10 μM, heparin, thioflavin T, PBS; for Avg P Amplitude: average of the amplitudes at 10, 15 and 20 hr; for % amp change: change in amplitude relative to control Tau
T1 construct: K18 Tau was first expressed, collected, and purified; His tag (cleaved yes); made in house
T1 sequence (P10636 561-685 limits assumed): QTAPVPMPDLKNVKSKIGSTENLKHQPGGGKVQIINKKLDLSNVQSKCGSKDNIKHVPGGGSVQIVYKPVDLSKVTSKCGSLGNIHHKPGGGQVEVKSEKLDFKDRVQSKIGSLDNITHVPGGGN
Procedure: (§1) Tau Kinetics Thioflavin T Plate Reader Assay Protocol: First, controls and the effects of varying concentrations of K18 Tau were examined (FIG. 24). In FIG. 24, 1X Tau refers to 10 μM K18 Tau final concentration in the well with 100 μl total volume (i.e., 0.5× Tau refers to 5 μM K18 Tau and 2× Tau refers to 20 μM K18 Tau). Before PLPs were added to K18 Tau, the concentration at which the mimetic aggregative polymers would not activate Thioflavin T was evaluated. Based on the results depicted in FIG. 25, a PLP concentration of 1 μM was selected for further experimentations. […] Given the goal to investigate effects of the PLPs, it was determined that too high of a concentration could easily be adjusted, whereas too low of a concentration could result in a false negative with respect to impact.
PLPs incorporating SEQ ID: 4 (“TP4”), SEQ ID: 2 (“TP7”), or SEQ ID: 10 (“TP12”) as peptide sidechains were tested. The PLPs, K18 Tau (10 μM) and Thio T (Sigma) at a final concentration of 10 μM was added, and aggregation was induced by the addition of a freshly prepared heparin sodium salt solution (Santa Cruz) at a final concentration of 44 μg/ml. For non-induced controls, assay buffer was added in place of heparin solution to a final volume of 100 μl per well. Aggregation reactions were carried out at 37° C. with continuous shaking and monitored via ThT fluorescence (excitation, 444 nm; emission, 485 nm; cutoff, 480 nm) in a Spectramax M5 microplate reader (Molecular Devices). Readings were taken every 5 min for a minimum of 24 h.
Table C. Summary of results depicted in FIGS. 26, 28, and 29 in the event the graphical representations are difficult to ascertain. Values are rounded to the nearest whole number. Tau 10 hr refers to the average amplitude (fluorescent intensity readout) of an n=6 of the control Tau (meaning no peptide or polymer added, just heparin, thioflavin T, and PBS) trace at 10 hour. The same applies to Tau 15 hr and Tau 20 hr. Avg Tau amplitude refers to the average of the amplitudes at 10, 15, and 20 hr in the previous columns. As Tau is the control for each individual plate, and these readings were done on three separate plates, there are 3 different sets of average amplitudes. Similar to the aforementioned, PLP or Pep 10 hr refers to the average amplitude (n=6 for PLP and n=3 for peptide) of the Tau trace treated with that compound at 10 hours. Avg P amplitude refers to the average of the amplitude at the 3 times, or the average of the 3 previous columns. PLP or Pep/Tau % is the result of dividing the Avg P amplitude by Avg Tau amplitude and multiplying by 100. % amp change refers to the change in amplitude given by subtracting Tau average amplitude from P average amplitude and dividing by Tau average amplitude and multiplying by 100.

Circular dichroism = assay type: physicochemical; details: 37° C.; for CD conformation of free peptides: before and after addition of heparin; for CD conformation of PLPs: Tris buffer pH 7.4
Procedure: The proteomimetic similarities were further investigated using circular dichroism. Samples tested included K18 Tau, PLPs having SEQ ID: 4, SEQ ID: 2, and SEQ ID: 10, as well as said PLPs with K18 Tau. Each of these samples were dissolved in Tris buffer (10 mM Tris, 50 mM NaF, 0.5 mM dithiothreitol) and pH was adjusted to 7.4. Samples were tested with and without the addition of heparin. For samples containing heparin, samples were incubated in the presence of 10 μM heparin sodium salt for 24 hours. Polymers and peptides were run at 37° C., at a concentration of 3 mg/10 ml and K18 Tau was run at 10 uM. Parameters were: 1 mm quartz cuvette, continuous scan at 10 nm/min over 260 to 200 nm, 3 acquisitions averaged for one trace.

[1] = Concentration dependence of polymer activation of Thioflavin T (no Tau); details: 1 μM PLP, no Tau (FIG. 25)
From the text: FIG. 25: Concentration dependence of polymer activation of Thioflavin T. TP4: PLP homopolymer incorporating SEQ ID: 4 as peptide sidechains. TP7: PLP homopolymer incorporating SEQ ID: 2 as peptide sidechains. TP4 and TP7 controls: PLP homopolymer, thioflavin T, no heparin, and PBS. The remainder of controls were at baseline and were removed from this FIG. 25 to improve readability. ThioT control: no Tau, no heparin, thioflavin T and PBS. ThioT heparin control: no Tau, no PLPs, thioflavin T, heparin, and PBS. n=3.
as §1

[2] = system: Mouse striatal cells HdhQ7/7; test: Cell permeability assay with rhodamine labeled PLPs (confocal imaging); assay type: cell-based; details: incubated with the cells for 24 hours
Procedure: Mouse striatal cells HdhQ7/7 from Coriell Institute were plated in 4-chamber 35 mm round glass-bottom dishes at a density of 50,000 per well. Cells were incubated for 24 hours in a 5% CO2 atmosphere at 33° C. Rhodamine labeled PLPs, rhodamine dye, and vehicle control in 10% FBS DMEM medium without phenol red were incubated with the cells for 24 hours, respectively. The cell nuclei (stained with Hoechst) were accomplished using a 405 nm laser with a 15% laser power. The cell membrane (stained with Wheat Germ Agglutinin, Alexa Fluor 488 Conjugate) was accomplished using a 488 nm laser with a 12% laser power. Cell imaging for Rhodamine fluorescence was accomplished using a 581 nm laser with an 8% laser power.

[3] = Liquid-liquid phase separation (LLPS) of rhodamine labeled PLPs; assay type: physicochemical
Procedure: Solutions were dissolved in HEPES buffer: 10 mM HEPES buffer (pH 7.4) with 0.1 mM EDTA and 2 mM DTT, Media buffer: Dulbecco Modified Eagles Medium (high glucose) with 2 mM L-glutamine with 10% Fetal Bovine Serum, 1% Penicillin/Streptomycin, or water. Different crowding agents were also tested using HEPES buffer—PEG and heparin. For heparin, stock solutions of 10 μM of each rhodamine labeled PLP (using either SEQ ID: 4 or SEQ ID: 7 as peptide monomers) and 30 μM of heparin sodium salt were prepared in buffer and kept refrigerated. Before experiments, solutions were given at least 30 min to come to room temperature and experiments were carried out at room temperature. In the microscope room, 20 μL of PLP was added to 5 μL of heparin and mixed gently in a microcentrifuge tube. 5 μL of solution was immediately pipetted onto Fisherbrand glass microscope slides and coverslip applied. All reactions were visualized on Olympus BX53 Fluorescent Microscope using the 581 nm laser to monitor the rhodamine, as well as brightfield. LLPS occurred within 60 min of initiation.

[4] = STEM / dry state TEM of PLP homopolymers; assay type: physicochemical; details: prepared in H2O
Procedure: Using standard STEM protocols, PLPs having SEQ ID: 2 or SEQ ID: 4 as peptide monomers were prepared in H2O and visualized. […] Further, from the results depicted in FIG. 17, the homopolymer the beta sheet forming nature was confirmed. After putting the PLPs in HEPES LLPS buffer and heating to 37° C. (i.e., body temperature), a time course established the fibrilization of the polymer on dry state TEM. The same fibrilization was seen on purified K18 Tau protein 24 hours after incubation with heparin in PBS as depicted in FIG. 19. The remarkably similar characteristics was a testament to the mimetic capabilities of the PLP.

[5] = HEPES buffer with heparin, room temperature

## DRVQIVYKRR [P7]
K18 Tau; 1 μM PLP/Pep
  PLP or Pep/Tau %: 135%
  PLP or Pep 10 hr (average amplitude, fluorescent intensity readout, of the Tau trace treated with that compound): 417
  PLP or Pep 15 hr (average amplitude): 411
  PLP or Pep 20 hr (average amplitude): 545
  Avg P Amplitude: 458
  % amp change: 11%
K18 Tau; 10 μM PLP/Pep
  PLP or Pep/Tau %: 126%
  PLP or Pep 10 hr (average amplitude, fluorescent intensity readout, of the Tau trace treated with that compound): 395
  PLP or Pep 15 hr (average amplitude): 448
  PLP or Pep 20 hr (average amplitude): 438
  Avg P Amplitude: 427
  % amp change: 4%
Circular dichroism
  CD conformation of free peptides: beta sheet formation

## TP4: PLP generated from peptide monomers characterized by SEQ ID: 4 (VQIINKRR)
K18 Tau; 1 μM PLP/Pep
  PLP or Pep/Tau %: 143%
  PLP or Pep 10 hr (average amplitude, fluorescent intensity readout, of the Tau trace treated with that compound): 730
  PLP or Pep 15 hr (average amplitude): 936
  PLP or Pep 20 hr (average amplitude): 961
  Avg P Amplitude: 876
  % amp change: 44%
[1]
  Thioflavin T signal of the polymer: significant signal
[2]
  Capability to permeate the striatal cells: demonstrated the capability to permeate the striatal cells
[3]; HEPES buffer with PEG as crowding agent
  Liquid-liquid phase separation: induce LLPS phase condensates
[3]; [5]
  Liquid-liquid phase separation: capable of liquid-liquid phase separation
Circular dichroism; after addition of heparin
  CD conformation of PLPs: beta sheet formation
Circular dichroism; before heparin was added
  CD conformation of PLPs: random coil formations
[4]
  Conformation by STEM: beta sheet conformations

## TP7: PLP generated from peptide monomers characterized by SEQ ID: 2 (DRVQIVYKRR)
K18 Tau; 1 μM PLP/Pep
  PLP or Pep/Tau %: 110%
  PLP or Pep 10 hr (average amplitude, fluorescent intensity readout, of the Tau trace treated with that compound): 633
  PLP or Pep 15 hr (average amplitude): 715
  PLP or Pep 20 hr (average amplitude): 672
  Avg P Amplitude: 673
  % amp change: 11%
[1]
  Thioflavin T signal of the polymer: negligible signal
[2]
  Capability to permeate the striatal cells: demonstrated the capability to permeate the striatal cells
[3]; [5]
  Liquid-liquid phase separation: capable of liquid-liquid phase separation
Circular dichroism; after addition of heparin
  CD conformation of PLPs: beta sheet formation
Circular dichroism; before heparin was added
  CD conformation of PLPs: random coil formations
[4]
  Conformation by STEM: beta sheet conformations

## TP12: PLP generated from peptide monomers characterized by SEQ ID: 10 (VQPINK)
K18 Tau; 1 μM PLP/Pep
  PLP or Pep/Tau %: 34%
  PLP or Pep 10 hr (average amplitude, fluorescent intensity readout, of the Tau trace treated with that compound): 116
  PLP or Pep 15 hr (average amplitude): 129
  PLP or Pep 20 hr (average amplitude): 143
  Avg P Amplitude: 129
  % amp change: −69%
K18 Tau; 10 μM PLP/Pep
  PLP or Pep/Tau %: 9%
  PLP or Pep 10 hr (average amplitude, fluorescent intensity readout, of the Tau trace treated with that compound): 36
  PLP or Pep 15 hr (average amplitude): 37
  PLP or Pep 20 hr (average amplitude): 36
  Avg P Amplitude: 36
  % amp change: −91%
K18 Tau; two concentrations, 1 μM and 10 μM, with heparin (FIG. 29)
  Effect of inhibitor polymer on fibril formation of K18 Tau: significantly prevented fibril formation of K18 Tau
Circular dichroism; after addition of heparin
  CD conformation of PLPs: beta sheet formation
Circular dichroism; before heparin was added
  CD conformation of PLPs: random coil formations

## VQIINKRR [P4]
K18 Tau; 1 μM PLP/Pep
  PLP or Pep/Tau %: 177%
  PLP or Pep 10 hr (average amplitude, fluorescent intensity readout, of the Tau trace treated with that compound): 588
  PLP or Pep 15 hr (average amplitude): 558
  PLP or Pep 20 hr (average amplitude): 657
  Avg P Amplitude: 601
  % amp change: 46%
K18 Tau; 10 μM PLP/Pep
  PLP or Pep/Tau %: 129%
  PLP or Pep 10 hr (average amplitude, fluorescent intensity readout, of the Tau trace treated with that compound): 417
  PLP or Pep 15 hr (average amplitude): 497
  PLP or Pep 20 hr (average amplitude): 395
  Avg P Amplitude: 436
  % amp change: 6%
Circular dichroism
  CD conformation of free peptides: beta sheet formation

## VQPINK [P12]
K18 Tau; 1 μM PLP/Pep
  PLP or Pep/Tau %: 182%
  PLP or Pep 10 hr (average amplitude, fluorescent intensity readout, of the Tau trace treated with that compound): 605
  PLP or Pep 15 hr (average amplitude): 555
  PLP or Pep 20 hr (average amplitude): 693
  Avg P Amplitude: 618
  % amp change: 50%
K18 Tau; 10 μM PLP/Pep
  PLP or Pep/Tau %: 140%
  PLP or Pep 10 hr (average amplitude, fluorescent intensity readout, of the Tau trace treated with that compound): 584
  PLP or Pep 15 hr (average amplitude): 413
  PLP or Pep 20 hr (average amplitude): 424
  Avg P Amplitude: 474
  % amp change: 15%
Circular dichroism
  CD conformation of free peptides: beta sheet formation
